Like-named read-outs stand apart in the source and are kept apart here.

The results in this text go back to PMC3714108.

Test in all cases: EMSA
(In general: A gel shift assay detects complexes by their altered migration in electrophoresis.)

Series [1] concerns the target T1, CcrA (Staphylococcus aureus 923 (USA300, …, UniProt Q84BN8 1-449)).
T1 sequence: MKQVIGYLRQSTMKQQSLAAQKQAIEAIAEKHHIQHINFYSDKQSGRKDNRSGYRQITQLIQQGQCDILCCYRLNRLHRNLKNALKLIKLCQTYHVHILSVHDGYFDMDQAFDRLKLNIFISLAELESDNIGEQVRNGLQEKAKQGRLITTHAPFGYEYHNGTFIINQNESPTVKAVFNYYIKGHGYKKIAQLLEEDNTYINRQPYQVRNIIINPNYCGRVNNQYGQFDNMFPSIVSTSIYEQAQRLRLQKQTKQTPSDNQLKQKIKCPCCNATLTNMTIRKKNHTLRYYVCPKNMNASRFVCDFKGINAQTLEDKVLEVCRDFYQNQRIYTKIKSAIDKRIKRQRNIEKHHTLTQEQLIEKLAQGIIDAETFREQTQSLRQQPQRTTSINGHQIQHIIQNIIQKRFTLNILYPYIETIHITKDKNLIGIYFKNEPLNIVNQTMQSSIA

Series [2] concerns the target T2, CcrB (Staphylococcus aureus 923 (USA300, …, UniProt Q9XB94 1-542)).
T2 sequence: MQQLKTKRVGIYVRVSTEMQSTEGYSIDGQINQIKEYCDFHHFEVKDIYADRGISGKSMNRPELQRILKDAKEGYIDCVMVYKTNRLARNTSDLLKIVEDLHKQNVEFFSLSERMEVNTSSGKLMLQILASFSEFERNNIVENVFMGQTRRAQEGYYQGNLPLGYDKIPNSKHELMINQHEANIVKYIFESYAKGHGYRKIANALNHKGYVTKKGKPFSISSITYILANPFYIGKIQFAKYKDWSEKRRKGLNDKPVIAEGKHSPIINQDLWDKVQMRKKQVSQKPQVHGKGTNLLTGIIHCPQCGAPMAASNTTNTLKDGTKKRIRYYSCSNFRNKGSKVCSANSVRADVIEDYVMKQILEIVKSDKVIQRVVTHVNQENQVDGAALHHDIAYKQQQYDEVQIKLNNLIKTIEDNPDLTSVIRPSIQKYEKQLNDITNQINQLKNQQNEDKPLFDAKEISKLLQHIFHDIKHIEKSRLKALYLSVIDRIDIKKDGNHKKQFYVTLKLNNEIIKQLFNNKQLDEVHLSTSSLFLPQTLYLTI

The target in series [3] is T1, CcrA. The source holds these as a separate data set.
The target in series [4] is T1, CcrA. This is another data set of the same source.
Series [5] has as its target T1, CcrA. This is another data set of the same source.
For series [6], the target named is T2, CcrB. This is another data set of the same source.

B1: attB ns half site 62 (dsDNA)
DNA 1: TACAGAGCATTTAAGATTATGCGAGGAGATGGCTGAGAACACCCCTTGTGAGGTACTTCATG
DNA 2: CATGAAGTACCTCACAAGGGGTGTTCTCAGCCATCTCCTCGCATAATCTTAAATGCTCTGTA
As to B1, the binding result in the series with CcrA [1] is on record as “binds”.

B2: attL58 (dsDNA)
DNA 1: TACAGAGCATTTAAGATTATGCGAGGAGAAGCTTATCATAAATGATGCGGTTTTTTCA
DNA 2: TGAAAAAACCGCATCATTTATGATAAGCTTCTCCTCGCATAATCTTAAATGCTCTGTA
For B2, the Kd (as a rule, the free concentration of one partner at which half of the binding sites on the other are occupied at equilibrium, for simple one-to-one binding) in the series with CcrB [2] was ~14.1 nM. Also, in the series with CcrA [3], the binding result was “binds”.

B3: attR72 (dsDNA)
DNA 1: TTAATTTTTCAAAAACCGCATCATTAACTGATAAGCAGAGGCGTATCATAAGTAAAACTAAAAAATTCTGTA
DNA 2: TACAGAATTTTTTAGTTTTACTTATGATACGCCTCTGCTTATCAGTTAATGATGCGGTTTTTGAAAAATTAA
Take B3: the Kd in the series with CcrB [2] is ~14.1 nM. The binding result with CcrA [4] is “no binding”.

B4: attSCC68 (dsDNA)
DNA 1: TTATTTTTTCAAAAACCGCATCATTAACTGATAAGCAGAAGCTTATCATAAATGATGCGGTTTTTTCA
DNA 2: TGAAAAAACCGCATCATTTATGATAAGCTTCTGCTTATCAGTTAATGATGCGGTTTTTGAAAAAATAA
Regarding B4, the Kd with CcrB [2] is ~14.1 nM. The binding result with CcrA [4] was “no binding”.

B5: attB62 (dsDNA)
DNA 1: TACAGAGCATTTAAGATTATGCGAGGAGAGGCGTATCATAAGTAAAACTAAAAAATTCTGTA
DNA 2: TACAGAATTTTTTAGTTTTACTTATGATACGCCTCTCCTCGCATAATCTTAAATGCTCTGTA
For the molecule B5, the Kd with CcrB [2] is ~14.1 nM. Moreover, the binding result with CcrA [3] is on record as “binds”.

B6: SCC half site 36 (dsDNA)
DNA 1: ATTTTTCAAAAACCGCATCATTAACTGATAAGCAGA
DNA 2: TCTGCTTATCAGTTAATGATGCGGTTTTTGAAAAAT
With B6, the figures for the binding result with CcrA [5] and with CcrB [6] were “no binding” and “binds”, respectively.
